Earlier results as cited in PMC4468388.

Target: insulin receptor (Homo sapiens) (UniProt P06213)
UniProt P06213, sequence (P06213 763-1382): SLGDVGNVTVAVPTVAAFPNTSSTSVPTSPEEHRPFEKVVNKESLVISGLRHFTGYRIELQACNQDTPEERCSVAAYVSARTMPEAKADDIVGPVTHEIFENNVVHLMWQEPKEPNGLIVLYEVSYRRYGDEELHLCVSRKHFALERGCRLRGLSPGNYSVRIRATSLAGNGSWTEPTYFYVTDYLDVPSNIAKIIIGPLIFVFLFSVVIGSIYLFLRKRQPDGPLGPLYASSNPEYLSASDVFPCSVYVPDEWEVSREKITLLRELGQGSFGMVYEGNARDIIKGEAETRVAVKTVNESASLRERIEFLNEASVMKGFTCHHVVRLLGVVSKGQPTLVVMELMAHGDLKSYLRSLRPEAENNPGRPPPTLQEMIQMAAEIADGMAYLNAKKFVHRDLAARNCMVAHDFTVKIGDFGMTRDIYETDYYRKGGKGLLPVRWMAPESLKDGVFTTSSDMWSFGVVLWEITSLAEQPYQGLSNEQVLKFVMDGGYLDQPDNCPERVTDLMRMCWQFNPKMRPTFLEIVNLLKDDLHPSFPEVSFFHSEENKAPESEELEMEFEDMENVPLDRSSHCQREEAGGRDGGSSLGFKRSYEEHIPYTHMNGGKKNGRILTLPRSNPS

insulin, sequence (P01308 90-110): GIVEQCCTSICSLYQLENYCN

- Kd: < 1 nM
Substance: insulin (from UniProt P01308)
